# B1: iFE5 (VHH, not shown: small tags and cut ends)
# VHH: QVQLQESGGGSVQAGGSLRLSCAASGYTYSFNSMGWFRQAPGKEREGVAVIYLGSTHYADSVKGRFTISQDNAKNMVYLQMNSLKPEDTAMYYCAADLLEYDGTWFGSTYNYWGQGTQVTVSS
# notes: also called antibody strain 5
# B2: iFE13 (VHH, not shown: small tags and cut ends)
# VHH: QVQLQESGGGSVQAGGSLRLSCAGDGYTYSMGAMAWFRQAPGKEREGVALIATSSGFISYTDSVKGRFTISQDDAKIYLQMNSLKPEDTAMYYCAAGTQFSWSPGSYNYWGQGTQVTVSS
# notes: also called antibody strain 13
# B3: iFE35 (VHH, not shown: small tags and cut ends)
# VHH: QVQLQESGGGSVQAGGSLGLSCTASGFTFDDSDMGWYRQAPGNECELVSTISSDGRGFYADSVKGRFTISQDRAKNTVYLHMNSLKPEDTAVYYCAAGWYGSFCSGLGQGTQVTVSS
# notes: also called antibody strain 35
# B4: iFE49 (VHH, not shown: small tags and cut ends)
# VHH: QVQLQESGGDSVQAGGSLRLSCAASGLISTGLISTRHCMSWFRQAPGKEREEVAVIGSDGSTRYGDFAKGRFTISKDTAKNTLYLQMNSLEPEDTAMYYCAAGPLVSTASRRRTRCPEGPRENIYWGQGTQVTVSS
# notes: also called antibody strain 49
# B5: iFE56 (VHH, not shown: small tags and cut ends)
# VHH: QVQLQESGGGSVQAGGSLRLSCAASGHTYSSNYCMAWFRQAPGKEREGVAAIYSDGSTSYADSVKGRFTISKDNAKNTLYLQIDSLKPEDTSLYYCAATAYEGSWTGKQPLCLLYEYTYWGQGTQVTVSS
# notes: also called antibody strain 56
# B6: iFE96 (VHH, not shown: small tags and cut ends)
# VHH: QVQLQESGGGSVQAGGSLRLSCAASGFTASSNFMGWFRQAPGKEREGVAAIYTGGASTFYADSVKGRFTISQDNAKNTVYLEMDTLKPEDTAMYYCAAAPRWIAPLRADRYEYWGQGTQVTVSS
# notes: also called antibody strain 96
# B7: iFE97 (VHH, not shown: small tags and cut ends)
# VHH: QVQLQESGGGSVQAGGSLRLSCTASEFTFDDSDMAWYRQAPGNECELVSTITSDGGTYYADSVKGRFTISQDNAKNTMYLQMNNLKPEDTAVYYCAADQWGSAEGDCTSSYPGGYWGQGTQVTVSS
# notes: also called antibody strain 97
# B8: iFE148 (VHH, not shown: small tags and cut ends)
# VHH: QVQLQESGGGSVQAGGSLRLSCVASGYTFNNNFVGWFRQAPGKEREGVAAIYSLGGSTYYADSVKGRFTISQDNAKNTVYLQMDSLKPEDTATYYCAGAITWVPPLSHRRYTYWGQGTQVTVSS
# B9: iFE163 (VHH, not shown: small tags and cut ends)
# VHH: QVQLQESGGDSVQAGGSLRLSCIASGFTFDDSDMGWYRQAPGHQCEFVSHITNDGTTYYADSVKGRFTISRDNAKNTVYLQMNSLKPEDAAVYYCAADAWGGGRSTCVNPIGYWGQGTQVTVSS
# B10: iFE166 (VHH, not shown: small tags and cut ends)
# VHH: QVQLQESGGGSVQAGGSLRLSCVASGFTGCRNIMSWYRQAPGKDREFVSAIDSDGVDYADSVKGRFSISQHNDKKTMYLQMTSLKLEDTAMYYCRRVDFGTTSQCRGNYWGQGTQVTVSS
# B11: iFE168 (VHH, not shown: small tags and cut ends)
# VHH: QVQLQESGGGSVQAGGSLRLSCAASGYTFSNNFVGWFRQAPGKKREGVATIYTLGSSTYYADSVKGRFTISQDNAKNTLYLEMNSLKPEDTAMYYCAAARGWVSPLDPARFVYWGQGTQVTVSS
# notes: also called antibody strain 168
# B12: iFE43 (VHH, not shown: small tags and cut ends)
# VHH: QVQLQESGGGSVQAGGSLRLSCAASGLRFSIYDWSWVRQAPGKGLEWVSAINSGGGVTSYADSVKGRVTISRDNAKNTLYLQMHSLKTEDTAVYYCATGDGGSWYRDGDWGQGTQVTVSS
# notes: also called antibody strain 43
# B13: iFE50 (VHH, not shown: small tags and cut ends)
# VHH: QVQLQESGGGLVQPGGSLRLSCAASGFTFSLYDMSWVRQAPGQGLEWVSAITNPGGSTYYADSVKDRFTISRDNAKNTLYLQMNSLKTEDTAVYYCAIGRRATFQREKDWGQGTQVTVSS
# notes: also called antibody strain 50
# Molecular target: T1, mApple-chis (mouse, UniProt Q91Y47 19-389)
# T1 construct: range 1-389; also called mapple-chis-biotin
# T1 sequence (looked up): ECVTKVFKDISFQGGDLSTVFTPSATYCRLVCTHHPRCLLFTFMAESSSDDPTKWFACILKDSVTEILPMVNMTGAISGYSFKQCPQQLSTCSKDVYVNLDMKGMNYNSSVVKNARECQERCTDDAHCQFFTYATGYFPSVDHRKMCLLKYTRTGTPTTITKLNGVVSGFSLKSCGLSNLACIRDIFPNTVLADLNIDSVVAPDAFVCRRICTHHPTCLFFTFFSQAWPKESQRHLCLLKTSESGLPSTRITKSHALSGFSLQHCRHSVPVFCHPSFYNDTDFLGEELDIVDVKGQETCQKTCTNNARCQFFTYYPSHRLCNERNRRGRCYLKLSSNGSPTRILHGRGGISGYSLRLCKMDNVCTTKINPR
# Experiment: ELISA, clone lysate on coated antigen
# Description: (§1) The FXI-binding positive phages obtained after panning were infected with blank E. coli and plated. Then 190 single colonies were randomly selected, named iFE 1 to iFE 190, and separately inoculated into 2TY-AG, and when the colonies were cultured to OD600 of about 0.8, IPTG was added to a final concentration of about 1 mM; after the expression was induced overnight at 25° C., single-domain antibodies were expressed in E. coli periplasm; the next day, the bacteria were harvested and lysed, and the supernatant was collected and used for ELISA assay. The plates were coated with hFXI, hApple and mApple, respectively, and then reacted overnight at 4° C., and the obtained sample lysis supernatant (the control group was E. coli lysis supernatant as a blank control) was added and reacted at room temperature for 2 hours. After washing, secondary antibody Goat anti-HA tag HRP (purchased from abcam) was added and reacted at room temperature for 2 hours. After washing, TMB chromogenic solution was added, absorbance values at 450 nm and 650 nm wavelengths were read, and a final absorbance value was obtained by subtracting the absorbance value at 650 nm wavelength from the absorbance value at 450 nm wavelength. When the OD value of the sample wells was more than 2 times larger than that of the control wells, the sample wells were determined as positive cloning wells.
row,Binder,OD
1,B1,0.069 OD
2,B2,0.056 OD
3,B3,0.043 OD
4,B4,0.061 OD
5,B5,0.04 OD
6,B6,0.334 OD
7,B7,0.774 OD
8,B8,0.681 OD
9,B9,1.07 OD
10,B10,1.83 OD
11,B11,0.843 OD
12,B12,0.04 OD
13,B13,0.042 OD

# Molecular target: T2, hApple-chis (human, UniProt P03951 19-387)
# T2 construct: range 1-387; also called happle-chis-biotin
# Experiment: ELISA, clone lysate on coated antigen
# Description: as §1
row,Binder,OD
1,B1,1.62 OD
2,B2,1.98 OD
3,B3,1.61 OD
4,B4,1.26 OD
5,B5,1.46 OD
6,B6,0.58 OD
7,B7,0.994 OD
8,B8,0.998 OD
9,B9,1.09 OD
10,B10,1.69 OD
11,B11,0.974 OD
12,B12,1.38 OD
13,B13,1.05 OD

# Molecular target: T3, recombinant human factor XI (hFXI) (human, UniProt P03951 19-625)
# T3 construct: also called hFXI-Chis; hFXI-CHis
# Experiment: ELISA, clone lysate on coated antigen
# Description: as §1
row,Binder,OD
1,B1,1.33 OD
2,B2,1.94 OD
3,B3,1.8 OD
4,B4,0.998 OD
5,B5,1.42 OD
6,B6,0.407 OD
7,B7,1.3 OD
8,B8,0.714 OD
9,B9,1.46 OD
10,B10,1.24 OD
11,B11,0.619 OD
12,B12,1.06 OD
13,B13,0.439 OD

# Molecular target: T1, mApple-chis
# Experiment: ELISA, purified tagged VHH on coated antigen
# Description: (§2) Plates were coated with hApple and mApple proteins, respectively, at 0.5 μg/well and reacted overnight at 4° C. The plates were added with a gradient dilution series of the candidate single-domain antibodies with His and HA tags obtained in 1.4. and reacted at room temperature for 2 hours. After washing, a chicken anti-HA-tag secondary antibody (streptavidin-HRP, abcam) labeled with horseradish peroxidase was added and reacted at room temperature for 2 hours. After washing, a chromogenic solution was added, absorbance values at 450 nm and 650 nm wavelengths were read, and a final absorbance value was obtained by subtracting the absorbance value at 650 nm wavelength from the absorbance value at 450 nm wavelength. Data processing and mapping analysis were carried out by using software SotfMax Pro v5.4, and through four-parameter filling, binding curves of the candidate single-domain antibodies against FXI to hApple and mApple and EC₅₀ values were obtained so as to reflect the affinities of the candidate antibodies for hApple and mApple.
Binder,OD at 20 µg/mL,EC50
B6,0.8 OD,–
B7,1.4 OD,1.23 µg/mL
B8,–,0.255 µg/mL
B9,–,0.0129 µg/mL
B10,–,0.0468 µg/mL
B11,–,0.0584 µg/mL

# Molecular target: T2, hApple-chis
# Experiment: ELISA, purified tagged VHH on coated antigen
# Description: as §2
Binder,EC50,OD at 20 µg/mL
B1,0.0329 µg/mL,–
B2,0.0195 µg/mL,–
B3,0.0241 µg/mL,–
B4,1.16 µg/mL,–
B5,0.323 µg/mL,–
B6,1.25 µg/mL,1.3 OD
B7,0.735 µg/mL,–
B8,0.263 µg/mL,–
B9,0.0162 µg/mL,–
B10,0.0498 µg/mL,–
B11,0.0205 µg/mL,–
